Experimental data: patent US20230277590A1

Legend:
[1] = biological target: Mesothelin (MSLN) on target cells (human)
[2] = biological target: Mesothelin (MSLN) on target cells (human); remark: listed apart in the source

| EC50, Jurkat NFAT luciferase, HEK293 cells transfected with titrated MSLN mRNA (MSLN molecules/cell) [1] | Substance | Time (hours) to 80% max killing of HeLa cells by transduced primary T cells (hours to 80% max killing (E:T 4:1)) [2] |
| --- | --- | --- |
| 80000 | m912 MSLN CAR (Gen3) | – |
| – | M5 MSLN CAR, third generation | 28 |
